According to patent publication US20080020978A1 (Amgen, published 2008):
Square brackets hold non-standard residues; d marks the D form. Ends that are not written are not given here. * marks the point of attachment. Bn2 = Nα,Nα-dibenzyl on N-terminal residue; 1Nal = N[C@@H](Cc1cccc2ccccc12)C(=O)O; hArg = N=C(N)NCCCC[C@H](N)C(=O)O; Tic = O=C(O)[C@@H]1Cc2ccccc2CN1; Cha = N[C@@H](CC1CCCCC1)C(=O)O; Cit = NC(=O)NCCC[C@H](N)C(=O)O; Phg = N[C@H](C(=O)O)c1ccccc1; Bn = c1ccc(C*)cc1; Acm = CC(=O)NC*

B1: SEQ ID NO 128 (peptide)
peptide: Ac-KWVTH[Cit]LAGLLS[Cit]SGGVVRKNFVPTDVGPKAF-NH2
SMILES: CC(=O)N[C@@H](CCCCN)C(=O)N[C@@H](Cc1c[nH]c2ccccc12)C(=O)N[C@H](C(=O)N[C@H](C(=O)N[C@@H](Cc1c[nH]cn1)C(=O)N[C@@H](CCCNC(N)=O)C(=O)N[C@@H](CC(C)C)C(=O)N[C@@H](C)C(=O)NCC(=O)N[C@@H](CC(C)C)C(=O)N[C@@H](CC(C)C)C(=O)N[C@@H](CO)C(=O)N[C@@H](CCCNC(N)=O)C(=O)N[C@@H](CO)C(=O)NCC(=O)NCC(=O)N[C@H](C(=O)N[C@H](C(=O)N[C@@H](CCCNC(=N)N)C(=O)N[C@@H](CCCCN)C(=O)N[C@@H](CC(N)=O)C(=O)N[C@@H](Cc1ccccc1)C(=O)N[C@H](C(=O)N1CCC[C@H]1C(=O)N[C@H](C(=O)N[C@@H](CC(=O)O)C(=O)N[C@H](C(=O)NCC(=O)N1CCC[C@H]1C(=O)N[C@@H](CCCCN)C(=O)N[C@@H](C)C(=O)N[C@@H](Cc1ccccc1)C(N)=O)C(C)C)[C@@H](C)O)C(C)C)C(C)C)C(C)C)[C@@H](C)O)C(C)C
B2: SEQ ID NO 700 (peptide)
peptide: Bn-VTHRLAGLLSRSGGVVKNNFVPTDVGPFAF-NH2
SMILES: CC(C)C[C@H](NC(=O)CNC(=O)[C@H](C)NC(=O)[C@H](CC(C)C)NC(=O)[C@H](CCCNC(=N)N)NC(=O)[C@H](Cc1c[nH]cn1)NC(=O)[C@@H](NC(=O)[C@@H](NCc1ccccc1)C(C)C)[C@@H](C)O)C(=O)N[C@@H](CC(C)C)C(=O)N[C@@H](CO)C(=O)N[C@@H](CCCNC(=N)N)C(=O)N[C@@H](CO)C(=O)NCC(=O)NCC(=O)N[C@H](C(=O)N[C@H](C(=O)N[C@@H](CCCCN)C(=O)N[C@@H](CC(N)=O)C(=O)N[C@@H](CC(N)=O)C(=O)N[C@@H](Cc1ccccc1)C(=O)N[C@H](C(=O)N1CCC[C@H]1C(=O)N[C@H](C(=O)N[C@@H](CC(=O)O)C(=O)N[C@H](C(=O)NCC(=O)N1CCC[C@H]1C(=O)N[C@@H](Cc1ccccc1)C(=O)N[C@@H](C)C(=O)N[C@@H](Cc1ccccc1)C(N)=O)C(C)C)[C@@H](C)O)C(C)C)C(C)C)C(C)C
B3: SEQ ID NO 701 (peptide)
peptide: [1Nal]VTHRLAGLLSRSGGVVKNNFVPTDVGPFAF-NH2
modifications: N-terminus assumed
SMILES: CC(C)C[C@H](NC(=O)CNC(=O)[C@H](C)NC(=O)[C@H](CC(C)C)NC(=O)[C@H](CCCNC(=N)N)NC(=O)[C@H](Cc1c[nH]cn1)NC(=O)[C@@H](NC(=O)[C@@H](NC(=O)[C@@H](N)Cc1cccc2ccccc12)C(C)C)[C@@H](C)O)C(=O)N[C@@H](CC(C)C)C(=O)N[C@@H](CO)C(=O)N[C@@H](CCCNC(=N)N)C(=O)N[C@@H](CO)C(=O)NCC(=O)NCC(=O)N[C@H](C(=O)N[C@H](C(=O)N[C@@H](CCCCN)C(=O)N[C@@H](CC(N)=O)C(=O)N[C@@H](CC(N)=O)C(=O)N[C@@H](Cc1ccccc1)C(=O)N[C@H](C(=O)N1CCC[C@H]1C(=O)N[C@H](C(=O)N[C@@H](CC(=O)O)C(=O)N[C@H](C(=O)NCC(=O)N1CCC[C@H]1C(=O)N[C@@H](Cc1ccccc1)C(=O)N[C@@H](C)C(=O)N[C@@H](Cc1ccccc1)C(N)=O)C(C)C)[C@@H](C)O)C(C)C)C(C)C)C(C)C
B4: SEQ ID NO 703 (peptide)
peptide: [Phg]VTHRLAGLLSRSGGVVKNNFVPTDVGPFAF-NH2
modifications: N-terminus assumed
SMILES: CC(C)C[C@H](NC(=O)CNC(=O)[C@H](C)NC(=O)[C@H](CC(C)C)NC(=O)[C@H](CCCNC(=N)N)NC(=O)[C@H](Cc1c[nH]cn1)NC(=O)[C@@H](NC(=O)[C@@H](NC(=O)[C@@H](N)c1ccccc1)C(C)C)[C@@H](C)O)C(=O)N[C@@H](CC(C)C)C(=O)N[C@@H](CO)C(=O)N[C@@H](CCCNC(=N)N)C(=O)N[C@@H](CO)C(=O)NCC(=O)NCC(=O)N[C@H](C(=O)N[C@H](C(=O)N[C@@H](CCCCN)C(=O)N[C@@H](CC(N)=O)C(=O)N[C@@H](CC(N)=O)C(=O)N[C@@H](Cc1ccccc1)C(=O)N[C@H](C(=O)N1CCC[C@H]1C(=O)N[C@H](C(=O)N[C@@H](CC(=O)O)C(=O)N[C@H](C(=O)NCC(=O)N1CCC[C@H]1C(=O)N[C@@H](Cc1ccccc1)C(=O)N[C@@H](C)C(=O)N[C@@H](Cc1ccccc1)C(N)=O)C(C)C)[C@@H](C)O)C(C)C)C(C)C)C(C)C
B5: SEQ ID NO 708 (peptide)
peptide: AC(Acm)DTATSVTHRLAGLLSRSGGVVKNNFVPTNVGSKAF-NH2
modifications: N-terminus assumed
SMILES: CC(=O)NCSC[C@H](NC(=O)[C@H](C)N)C(=O)N[C@@H](CC(=O)O)C(=O)N[C@H](C(=O)N[C@@H](C)C(=O)N[C@H](C(=O)N[C@@H](CO)C(=O)N[C@H](C(=O)N[C@H](C(=O)N[C@@H](Cc1c[nH]cn1)C(=O)N[C@@H](CCCNC(=N)N)C(=O)N[C@@H](CC(C)C)C(=O)N[C@@H](C)C(=O)NCC(=O)N[C@@H](CC(C)C)C(=O)N[C@@H](CC(C)C)C(=O)N[C@@H](CO)C(=O)N[C@@H](CCCNC(=N)N)C(=O)N[C@@H](CO)C(=O)NCC(=O)NCC(=O)N[C@H](C(=O)N[C@H](C(=O)N[C@@H](CCCCN)C(=O)N[C@@H](CC(N)=O)C(=O)N[C@@H](CC(N)=O)C(=O)N[C@@H](Cc1ccccc1)C(=O)N[C@H](C(=O)N1CCC[C@H]1C(=O)N[C@H](C(=O)N[C@@H](CC(N)=O)C(=O)N[C@H](C(=O)NCC(=O)N[C@@H](CO)C(=O)N[C@@H](CCCCN)C(=O)N[C@@H](C)C(=O)N[C@@H](Cc1ccccc1)C(N)=O)C(C)C)[C@@H](C)O)C(C)C)C(C)C)C(C)C)[C@@H](C)O)C(C)C)[C@@H](C)O)[C@@H](C)O

Experiments:
[1] = biological target: T1, CGRP1 receptor (CRLR/RAMP1 complex) of human neuroblastoma SK-N-MC cells (human, UniProt Q16602 23-461; O60894 27-148); test: cell-based or functional assay
T1 sequence (Q16602 23-461, chain 1 of 2): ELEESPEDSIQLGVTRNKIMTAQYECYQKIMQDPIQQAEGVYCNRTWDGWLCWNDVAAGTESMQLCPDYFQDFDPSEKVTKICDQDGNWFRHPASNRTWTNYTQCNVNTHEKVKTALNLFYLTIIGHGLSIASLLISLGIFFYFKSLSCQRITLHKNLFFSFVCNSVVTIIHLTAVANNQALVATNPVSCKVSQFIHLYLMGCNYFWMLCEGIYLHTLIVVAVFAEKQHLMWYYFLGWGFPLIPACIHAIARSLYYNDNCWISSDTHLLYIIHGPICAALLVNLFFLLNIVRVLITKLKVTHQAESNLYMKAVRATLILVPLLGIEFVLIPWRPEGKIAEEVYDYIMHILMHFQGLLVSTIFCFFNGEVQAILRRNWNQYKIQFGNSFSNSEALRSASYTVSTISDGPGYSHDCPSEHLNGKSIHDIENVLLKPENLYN
T1 sequence (O60894 27-148, chain 2 of 2): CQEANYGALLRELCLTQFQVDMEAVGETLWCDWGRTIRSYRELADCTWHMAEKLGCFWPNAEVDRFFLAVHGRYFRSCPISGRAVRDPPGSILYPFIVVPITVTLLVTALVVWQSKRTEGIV

[2] = biological target: T1, CGRP1 receptor (CRLR/RAMP1 complex) of …; test: 125I-hαCGRP competition, SK-N-MC membranes
Experimental: CGRP₁ binding experiments. […] The plates were incubated at room temperature for 2 hour with shaking at 60 rpm, then the contents of each well were filtered over 0.5% polyethyleneimine (PEI)-treated (at least one hour) GF/C 96-well filter plates. The GF/C filter plates were washed 6 times with ice-cold 50 mM Tris, pH 7.5 and dried in an oven at 55 C for 1 hour. The bottoms of the GF/C plates were then sealed, and 40 μl Microscint™ 20 was added to each well, then the tops of the GF/C plates were sealed with TopSeal™-A, a press-on adhesive sealing film, and the GF/C plates were counted with TopCount NXT (Packard). The data were analyzed by using ActivityBase (IDBS) or Prizm (GraphPad) software.

Row | Binder | IC50 [1] | Ki [2]
1 | B1 | 13 nM | –
2 | WVTHXLAGLLSXSGGVVXKNXVPTDVGXFAF (Ac-WVTH[Cit]LAGLLS[Cit]SGGVV[hArg]KN[2-Nal]VPTDVG[Oic]FAF-NH2) [SEQ ID NO 137] | 2.66 nM | –
3 | WVTHXLAGLLSXSGGVVXKNXVPTDVGXFAX (Ac-WVTH[Cit]LAGLLS[Cit]SGGVV[hArg]KN[2-Nal]VPTDVG[Oic]FA[2-Nal]-NH2) [SEQ ID NO 138] | 3.45 nM | –
4 | WVTHXLAGLLSXSGGVVXKNXVXTDVGXFAX (Ac-WVTH[Cit]LAGLLS[Cit]SGGVV[hArg]KN[2-Nal]V[Oic]TDVG[Oic]FA[2-Nal]-NH2) [SEQ ID NO 139] | 3.57 nM | –
5 | Ac-WVTH[Cit]LAGLLS[Cit]SGGVVRKNFVPTDVG[Tic]FAF-NH2 [SEQ ID NO 140] | 3.02 nM | –
6 | Ac-WVTH[Cit]LAGLLS[Cit]SGGVVRKNFVPTDVG[Tic]FAF-NH2 [SEQ ID NO 141] | 4.32 nM | –
7 | WVTHXLAGLLSXSGGVVXKNFVPTDVGPXAF (Ac-WVTH[Cit]LAGLLS[Cit]SGGVV[hArg]KNFVPTDVGP[1-Nal]AF-NH2) [SEQ ID NO 144] | 2.24 nM | –
8 | WVTHXLAGLLSXSGGVVRKNFVPTDVGPXAF (Ac-WVTH[Cit]LAGLLS[Cit]SGGVVRKNFVPTDVGP[Tic]AF-NH2) [SEQ ID NO 146] | 10.1 nM | –
9 | WVTHXLAGLLSXSGGVVXKNFVPTDVGPFAF (Ac-WVTH[Cit]LAGLLS[Cit]SGGVV[hArg]KNFVPTDVGPFAF-NH2) [SEQ ID NO 653] | 3.22 nM | –
10 | Ac-WVTH[Cit]LAGLLS[Cit]SGGVV[hArg]KNFVPTDVGPFA-NH2 (not fully specified) [SEQ ID NO 654] | > 1000 nM | –
11 | C(MeO‑PEG 5 kDa)GGGGGGGWVTHRLAGLLSRSGGVVKNNFVPTDVGPFAF-NH2 [SEQ ID NO 697] | – | 5.74 nM
12 | B2 | – | 0.22 nM
13 | B3 | – | 0.14 nM
14 | Bn2-VTHRLAGLLSRSGGVVKNNFVPTDVGPFAF-NH2 [SEQ ID NO 702] | – | 0.23 nM
15 | B4 | – | 0.19 nM
16 | [Cha]VTHRLAGLLSRSGGVVKNNFVPTDVGPFAF-NH2 [SEQ ID NO 704] | – | 0.2 nM
17 | ASDTATCVTHRLAGLLSRSGGVVKNNFVPTNVGSKAF (ASDTATC(Acm)VTHRLAGLLSRSGGVVKNNFVPTNVGSKAF-NH2) [SEQ ID NO 707] | – | 20.8 nM
18 | B5 | – | 24 nM
19 | ASDTATSVTHRLAGLLSRSGGVVKNNFVPTNVGSKAF-NH2 [SEQ ID NO 709] | – | 12.1 nM
20 | WVTHXLAGLLSXSGGVVRKNFVPTDVGPFAF (Ac-WVTH[Cit]LAGLLS[Cit]SGGVVRK(20 KPEGald)NFVPTDVGPFAF-NH2) [SEQ ID NO 158] | – | 2.61 nM
21 | CGGGGGGGFVPTDVGPFAF-NH2 [SEQ ID NO 721] | – | 7.34 nM
22 | WVTHXLAGLLSXSGGVVXKNFVPTDVGPFAF (Ac-WVTH[Cit]LAGLLS[Cit]SGGVV[hArg]K(20 K PEGald)NFVPTDVGPFAF-NH2) [SEQ ID NO 153] | – | 1.78 nM
23 | WVTHXLAGLLSXSGGVVXKNFVPTDVGPFAF (Ac-WVTH[Cit]LAGLLS[Cit]SGGVV[hArg]K(20 KPEGald)NFVPTDVGPFAF-NH2) [SEQ ID NO 171] | – | 1.27 nM
